Results published in patent US20180238915A1 (published 2018).
Blank lines part the entries; values can stand above or below the binder they belong to.

Assays:
[1] = target: T1, negatively modulated GCSF receptor (GCSFR(-)) (UniProt Q99062 25-621, limits assumed, modified by S-HyNic and conjugated through HyNic-4FB bonds to a 64-base DNA oligonucleotide (SEQ. ID 2, 5' C12 amino modifier); number and sites not stated); experiment: off-rate by negative MCM and electrokinetic concentration; 100 nM labeled drug, 1 uM negatively modulated receptor
T1 construct: Receptor-oligonucleotide conjugate; Receptor known only by catalogue number; also called nGCSFR; nTPR
T1 sequence (looked up): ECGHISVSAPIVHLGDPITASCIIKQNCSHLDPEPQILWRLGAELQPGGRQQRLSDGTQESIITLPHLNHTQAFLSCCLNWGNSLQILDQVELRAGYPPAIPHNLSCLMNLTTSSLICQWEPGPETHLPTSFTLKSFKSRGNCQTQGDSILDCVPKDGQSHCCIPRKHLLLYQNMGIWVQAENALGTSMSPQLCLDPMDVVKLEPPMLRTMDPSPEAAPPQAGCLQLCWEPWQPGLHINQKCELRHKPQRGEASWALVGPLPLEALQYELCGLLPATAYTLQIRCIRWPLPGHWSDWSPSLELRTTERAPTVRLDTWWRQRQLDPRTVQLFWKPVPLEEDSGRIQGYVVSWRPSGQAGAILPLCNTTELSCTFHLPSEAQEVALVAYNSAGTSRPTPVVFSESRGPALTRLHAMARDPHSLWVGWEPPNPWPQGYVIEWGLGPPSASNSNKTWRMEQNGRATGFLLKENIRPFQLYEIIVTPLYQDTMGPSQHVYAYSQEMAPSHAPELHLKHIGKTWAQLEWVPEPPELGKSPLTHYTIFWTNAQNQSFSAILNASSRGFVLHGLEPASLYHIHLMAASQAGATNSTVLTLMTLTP
Method: The dissociation rate of drug-receptor binding, koff was measured by monitoring the evolution of the peak of complex and fitting it with the aforementioned derived equation.

[2] = target: T2, positively modulated granulocyte colony stimulating factor receptor (pGCSFR) (UniProt Q99062 25-621, limits assumed, C-terminal Lys carries 5-FAM; C-terminal amide (CONH2); N-terminus modified by 6-(BOC-hydrazino)nicotinic acid for conjugation to the receptor; modified by Sulfo-S-4FB and conjugated through a …); experiment: direct assay by positive MCM and electrokinetic concentration; 1 nM pGCSFR, 0-81 nM G-CSF, 30 min incubation, 30 V 15 min
T2 construct: Receptor-peptide conjugate; Receptor known only by catalogue number
T2 sequence: T1 sequence (looked up)
T2 sequence (peptide): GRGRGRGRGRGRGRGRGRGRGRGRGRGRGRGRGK
Source text: The dose-response curves were plotted by fitting the experimental results with the classic second-order binding model.

dissociative half-life [1]: 5.5 h
B1: labeled G-CSF (Alexa Fluor 488) (ligand, UniProt P09919-2 31-204, looked up)
chain: TPLGPASSLPQSFLLKCLEQVRKIQGDGAALQEKLCATYKLCHPEELVLLGHSLGIPWAPLSSCPSQALQLAGCLSQLHSGLFLYQGLLQALEGISPELGPTLDTLQLDVADFATTIWQQMEELGMAPALQPTQGAMPAFASAFQRRAGGVLVASHLQSFLEVSYRVLRHLAQP
modifications: Alexa Fluor 488 label (carboxylic acid succinimidyl ester); sites not stated

Kd [2]: ~0.7 nM
B2: granulocyte colony stimulating factor (G-CSF) (ligand, UniProt P09919-2 31-204, looked up)
chain: B1 chain
notes: Unlabeled Sandoz G-CSF
